Assay results taken from US6451762B1 (Novo Nordisk A/S, priority 1997, dated 2002).
“Also recorded” adds a separate entry of the source. Read-outs that look alike come from different tables or passages of the source. Marks after values point to notes of the source that are not given here.

Legend:
[1] = Gel filtration method 2 on Superose 6HR (HPLC, 37° C.); format: physicochemical; conditions: 140 mM NaCl, 10 mM tris, pH 7.4; for KAV (Superose 6HR) 2Zn^2+/6 ins: 2 Zn2+/6 ins; for KAV (Superose 6HR) 3Zn^2+/6 ins: 3 Zn2+/6 ins
Procedure: An alternative method to measure the capability of insulin derivatives of forming soluble high molecular weight aggregates was developed, suitable for HPLC equipment. The column dimensions, injection volume, and flow rate correspond to the first method, whereas the temperature is increased to 37° C. and the phosphate buffer is changed to trishydroxymethylaminomethan hydrochloride and additional sodium chloride. The aggregated state of insulin is defined to elute before the gel filtration standard aldolase like in the first method.

[2] = Disappearance after subcutaneous injection in pigs
Source text: The gel filtration experiment using the conditions prescribed in this section is the direct physico-chemical method to reveal the potential aggregate formation property of an insulin derivative. Disappearance after subcutaneous injection in pigs reflects the combination of the albumin binding and polymer formation properties of the insulin derivative, besides a variety of biological factors.

Albumin [3] = target: T1, Albumin (Homo sapiens, UniProt P02768)
[4] = Gel filtration on Sephacryl S-300 HR (aggregate formation, method 1); format: physicochemical; set-up: key to KAV: KAV=(VE-V0)/(VT-V0); fraction of available elution volume; conditions: for KAV: Sephacryl S-300 HR; for formation of high molecular weight soluble aggregates: gel filtration at neutral pH, formulation used (Table 1)
Procedure: A pH neutral aqueous buffer system is used in the gel filtration and the insulin derivatives in the aggregated state are applied to the column in the form of a pharmaceutical preparation at a concentration of 600 nmol insulin/ml. […] However, when the actual state of aggregation in a pharmaceutical preparation is to be assessed, the medium of the preparation, exclusive the Zn^2+ which is insulin bound, is used as the eluent for the gel filtration. A column of 28×1 cm is eluted at a rate of 15 ml/h. Insulin derivatives were injected (200 μl) as a standard formulation comprising 600 μM derivative, 200 or 300 μM Zn^2+, 20 mM NaCl (or varied), 16 mM phenol, 16 mM m-cresol, 7 mM sodium phosphate at pH 7.5. Exclusion limit of Sephacryl® S-300 HR is stated by the manufacturer, Pharmacia, as a molecular weight of 1,500 kDa for globular proteins and 400 kDa for linear dextrans. In practice the elution of solutes of different size is characterised by the available volume as KAV values: KAV=(VE-V0)/(VT-V0) where VE is elution volume, V0 is void volume, e.g. elution volume of blue dextran, VT is total volume. Thus, the KAV value is independent of column dimension. […]

Albumin [5] = target: T1, Albumin; assay: Albumin binding constant; conditions: normalised using Lys^B29(N^ε tetradecanoyl) des(B30) human insulin as reference
[6] = Gel filtration on Sephacryl S-300 HR (aggregate formation, method 1); format: physicochemical; set-up: key to KAV: KAV=(VE-V0)/(VT-V0); fraction of available elution volume; conditions: for KAV: Sephacryl S-300 HR, pH 7.4 eluent, Zinc free
[7] = eluent 125 mM NaCl, 20 mM sodium phosphate pH 7.4, sample 600 μM derivative, 200 μM Zn2+, 0-20 mM NaCl, phenol, m-cresol, pH 7.5

| Substance | KAV (Superose 6HR) 2Zn^2+/6 ins [1] | KAV (Superose 6HR) 3Zn^2+/6 ins [1] | Disappearance in pigs, T50% ([2]; pig, in vivo, sc) [h] | Albumin binding Kass (Albumin [3]) | Disappearance T50% ([2]; pig, in vivo, sc) | KAV [4, 7] | other results |
| --- | --- | --- | --- | --- | --- | --- | --- |
| Asp^A21 Lys^B29(N^ε-tetradecanoyl-) des(B30) HI | 0.55 | 0.46 | 16.4 | 0.97 10^5M^−1 | – | – | – |
| B9Asp, B27Glu human insulin [reference compound] | – | – | – | 0 (mol/l)^−1 | (1) h | – | KAV (Superose 6HR) ([1]; standards): 0.73; KAV ([4]; pH 7.4 eluent, standards applied dissolved in water): 0.71; KAV ([4]; pH 7.4 eluent, standards applied dissolved in water, listed as monomeric form of insulin): about 0.71 |
| Human insulin [reference compound] | 0.64 | 0.64 | – | – | – | – | Albumin binding Kass (Albumin [5]): 0 (mol/l)^−1; KAV [6]: 0.72; Disappearance T50% ([2]; pigs, subcutaneous injection, normalised using Lys^B29(N^ε tetradecanoyl) des(B30) human insulin as reference): (2) h; Disappearance in pigs, T50% ([2]; pigs, subcutaneous, normalised to Lys^B29(N^ε tetradecanoyl-) des(B30) human insulin (T50% = 14.3 h)): 2 h |
| Lys^B29(N^ε decanoyl) | – | – | – | 0.06 × 10^5 (mol/l)^−1 | 5.1 h | – | KAV ([4]; eluent 125 mM NaCl, 20 mM sodium phosphate pH 7.4, sample 600 μM, 300 μM Zn2+): 0.67 |
| Lys^B29(N^ε lithocholyl | – | – | – | – | – | – | KAV [6]: 0.74 |
| Lys^B29(N^ε ω-carboxynonadecanoyl) des(B30) | – | – | – | 36 × 10^5 (mol/l)^−1 | 21.9 h | 0.04 | – |
| Lys^B29(N^ε-cholanoyl-) des(B30) HI | 0.40 | 0.17 | 20.1 | 0.48 10^5M^−1 | – | – | – |
| Lys^B29(N^ε-dehydrolithocholoyl-) des(B30) HI | 0.05 | 0.03 | >34 | 0.26 10^5M^−1 | – | – | – |
| Lys^B29(N^ε-deoxycholoyl-γ-Glu-) des(B30) HI | 0.20 | 0.07 | 13.9 | 0.03 10^5M^−1 | – | – | – |
| Lys^B29(N^ε-hexadecanoyl-α-amido-γ-Glu-) des(B30) HI | 0.38 | 0.41 | 15.3 | 0.56 10^5M^−1 | – | – | – |
| Lys^B29(N^ε-lithocholoyl-) des(B30) HI | −0.01 | 0.23 | >34 | 0.38 10^5M^−1 | – | – | – |
| Lys^B29(N^ε-lithocholoyl-α-amido-γ-Glu-) des(B30) HI | −0.02 | 0.00 | >34 | 0.23 10^5M^−1 | – | – | – |
| Lys^B29(N^εlithocholyl-α-Glu-) des(B30) human insulin | – | – | – | 0.3 × 10^5 (mol/l)^−1 | 11.8 h | 0.53 | formation of high molecular weight soluble aggregates [4]: only the first forms aggregates; also recorded: incapable of forming soluble high molecular weight aggregates |
| Lys^B29(N^εlithocholyl-γ-Glu-) des(B30) human insulin [Lys^B29(N^ε lithocholyl-γ-Glu-) des(B30)] | 0.00 | −0.01 | 22.8 | – | 22.8 h | 0.04* | formation of high molecular weight soluble aggregates [4]: capable of forming soluble high molecular weight aggregates; formation of high molecular weight soluble aggregates ([4]; listed as Ly B^29(N^εlithocholyl-γ-Glu-) des(B30) human insulin): capable of forming high molecular weight soluble aggregates |
| Lys^B29(N^εtetradecanoyl) des(B30) human insulin [Lys^B29(N^ε tetradecanoyl) des(B30), reference compound] | 0.58 | 0.56 | – | – | 14.3 h | 0.51 | formation of high molecular weight soluble aggregates [4]: incapable of forming soluble high molecular weight aggregates |
| Lys^B29(N^εω-carboxyheptadecanoyl) des(B30) human insulin | – | – | – | 25 × 10^5 (mol/l)^−1 | 18.7 h | 0.05 | KAV ([4]; medium of the preparation as eluent: 5 mM sodium phosphate pH 7.5, 10 mM NaCl, 16 mM phenol, 16 mM m-cresol, 1.6% glycerol, 2-3 Zn2+/hexamer): about 0.45; formation of high molecular weight soluble aggregates [4]: capable of forming high molecular weight soluble aggregates; degree of aggregation in the published formulation ([4]; medium of the preparation as eluent, 10 mM NaCl, 2-3 Zn2+/hexamer): no high molecular weight aggregates of insulin derivatives was present; formation of aggregates ([6]; gel filtration, absence of Zn2+ (0 Zn2+/hexamer)): aggregates are not formed |
